According to publication PMC3795262:

Molecular target: Full-length recombinant human TSG-6 (secreted product of tumor necrosis factor-stimulated gene-6) (human) (UniProt P98066)
Assay: not stated; preliminary results, data not shown

Sequence of UniProt P98066 (P98066 18-277): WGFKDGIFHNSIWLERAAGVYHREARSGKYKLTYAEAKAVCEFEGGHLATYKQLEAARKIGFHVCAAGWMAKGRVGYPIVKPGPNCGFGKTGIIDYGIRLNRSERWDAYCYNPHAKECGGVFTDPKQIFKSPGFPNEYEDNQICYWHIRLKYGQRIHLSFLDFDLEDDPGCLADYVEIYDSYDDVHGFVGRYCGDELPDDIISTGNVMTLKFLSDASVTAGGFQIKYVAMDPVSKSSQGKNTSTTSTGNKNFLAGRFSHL

“Inter-α-inhibitor (from UniProt P19827 35-672; P19823 55-702) (complex)” showed a Kd of 0.01 µM.
